Measurements as given in patent publication US20120021995A1 (published 2012).
Residue numbers refer to the chain shown, from its start.

T1: recombinant human TRAIL R1 (DR4)/Fc chimera (human, UniProt O00220 24-239)
T1 construct: bought (R&D Systems); not shown: Fc of the bought chimera (R&D Systems)
T1 sequence: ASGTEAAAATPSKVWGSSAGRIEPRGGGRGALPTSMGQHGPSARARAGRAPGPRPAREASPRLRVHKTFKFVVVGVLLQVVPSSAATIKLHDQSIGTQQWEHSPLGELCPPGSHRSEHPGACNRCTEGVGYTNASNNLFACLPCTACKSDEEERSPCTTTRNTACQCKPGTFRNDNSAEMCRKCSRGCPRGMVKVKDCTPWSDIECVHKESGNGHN

B1: 064-40.1C7 (designed binder)
chain: ALQTVCLKGTKVHMKCFLAFTQTKTFHEASEDCISRGGTLSTPQTGSENDALYEYLRQSVGNEAEIWLGLNGWLEGVGWVDMTGARIAYKNWETEITAQPDGGGGVRWENCAVLSGAANGKWFDKRCRDQLPYICQFGIV
notes: on phage
B2: 064-36.1D7 (designed binder)
chain: ALQTVCLKGTKVHMKCFLAFTQTKTFHEASEDCISRGGTLSTPQTGSENDALYEYLRQSVGNEAEIWLGLNVRHWLQLWVDMTGARIAYKNWETEITAQPDGGGWWKGENCAVLSGAANGKWFDKRCRDQLPYICQFGIV
notes: on phage
B3: 064-40.1G11 (designed binder)
chain: B2 chain with R73A, H74R, Q77L, L78K, G104M, W105C, W106K, K107P, G108C
notes: on phage
B4: 029-62.2C5 (designed binder)
chain: B2 chain with H74R, W75M, L76G, Q77F, L78H, G104R, W105V, W106A, K107V
notes: on phage
B5: 014-40.3A3 (designed binder)
chain: B1 chain with W73F, L74M, E75V, V77R, G104S, G105M, V106W, R107P
notes: on phage
B6: 014-40.3H2 (designed binder)
chain: ALQTVCLKGTKVHMKCFLAFTQTKTFHEASEDCISRGGTLSTPQTGSENDALYEYLRQSVGNEAEIWLGLNMVTRPPYWVDMTGARIAYKNWETEITAQPDGGWVMSFENCAVLSGAANGKWFDKRCRDQLPYICQFGIV
notes: on phage
B7: 064-36.1G10 (designed binder)
chain: B1 chain with W73Y, E75Q, V77S, G104W, G105K, V106T
notes: on phage
B8: 029-62.2B3 (designed binder)
chain: B2 chain with V72R, R73Y, W75V, L76Q, Q77A, G104R, W105V, W106R, K107P, G108R
notes: on phage
B9: 064-98.1G6 (designed binder)
chain: B1 chain with E75S, V77Y, G104R, G105V, V106W, R107S
notes: on phage
B10: 064-40.2C7 (designed binder)
chain: B2 chain with V72S, R73Y, H74R, W75L, L76H, Q77Y, L78G, G104R, W105R, K107L
notes: on phage
B11: 064-40.1E11 (designed binder)
chain: B1 chain with G72W, W73L, L74S, E75L, G76F, V77S, G78P, G104R, W108G
notes: on phage
B12: 064-36.1E1 (designed binder)
chain: B1 chain with G72I, L74P, E75L, G76R, V77F, G78R, G104F, G105V, V106T, W108K
notes: on phage
B13: 014-42.3C7 (designed binder)
chain: B1 chain with V77Y, G104T, G105W, V106W, R107E
notes: on phage
B14: 064-40.2D9 (designed binder)
chain: B1 chain with G72W, W73Q, E75Y, G76Y, V77R, G78Y, G104V, V106C, R107M, W108V
notes: on phage
B15: 014-42.3G8 (designed binder)
chain: B1 chain with E75Q, G104R, V106W, R107P
notes: on phage
B16: 064-40.2E10 (designed binder)
chain: B1 chain with W73Y, E75D, G104Q, V106C
notes: on phage
B17: 014-42.3D9 (designed binder)
chain: B1 chain with W73Y, E75A, G104R, V106F
notes: on phage
B18: 014-40.3E9 (designed binder)
chain: ALQTVCLKGTKVHMKCFLAFTQTKTFHEASEDCISRGGTLSTPQTGSENDALYEYLRQSVGNEAEIWLGLNPFRVPQWWVDMTGARIAYKNWETEITAQPDGGYGPVQENCAVLSGAANGKWFDKRCRDQLPYICQFGIV
notes: on phage
B19: 064-21.1A5 (designed binder)
chain: B1 chain with W73F, E75Q, V77N, G104M, G105W, V106D
notes: on phage
B20: 029-61.1A5 (designed binder)
chain: B1 chain with E75M, V77T, G104W, G105W, V106N
notes: on phage
B21: 064-40.2G11 (designed binder)
chain: B1 chain with V77A, G104W, G105Q, V106W
notes: on phage
B22: 064-40.2A10 (designed binder)
chain: B1 chain with W73V, E75Q, G76R, V77G, G104P, V106G, R107E, W108R
notes: on phage
B23: 029-62.4F5 (designed binder)
chain: B6 chain with M72I, V73Q, T74C, R75S, Y78L, W104A, M106Q, S107Q, F108Q
notes: on phage
B24: 014-40.3B3 (designed binder)
chain: B1 chain with W73Y, L74M, E75S, V77Y, G104M, G105M, V106A
notes: on phage
B25: 014-40.3E11 (designed binder)
chain: B1 chain with W73Y, E75A, V77Y, G104P, G105S, V106I, R107W, W108R
notes: on phage
B26: 064-40.1G9 (designed binder)
chain: B1 chain with E75S, G104W, G105A, V106H, R107A
notes: on phage
B27: 064-36.1E4 (designed binder)
chain: ALQTVCLKGTKVHMKCFLAFTQTKTFHEASEDCISRGGTLSTPQTGSENDALYEYLRQSVGNEAEIWLGLNVLRLAWSWVDMTGARIAYKNWETEITAQPDGGKRNGCENCAVLSGAANGKWFDKRCRDQLPYICQFGIV
notes: on phage
B28: 064-36.1E10 (designed binder)
chain: B1 chain with W73F, E75A, G104W, G105W, V106T
notes: on phage
B29: 064-36.1B7 (designed binder)
chain: B1 chain with L74M, E75A, G104R, G105R, V106L, R107P
notes: on phage
B30: 064-36.1E12 (designed binder)
chain: B1 chain with W73C, L74T, E75Q, V77Q, G104K, G105K, V106W, R107K
notes: on phage
B31: 014-40.3B2 (designed binder)
chain: B1 chain with W73Y, L74I, V77T, G104S, G105N, V106W, R107A
notes: on phage
B32: 064-36.1G4 (designed binder)
chain: B1 chain with G72R, W73C, E75Q, G104R, V106W, R107P
notes: on phage
B33: 064-99.2H5 (designed binder)
chain: B1 chain with W73L, E75S, G76D, V77W, G78W, G105N, V106Q, R107S, W108R
notes: on phage
B34: 029-62.7D10 (designed binder)
chain: B1 chain with W73L, L74A, E75R, G76Q, V77Q, G104K, V106R, R107P, W108R
notes: on phage

Target: T1, recombinant human TRAIL R1 (DR4)/Fc …
Assay: phage ELISA on DR4/Fc
Method: The remaining overnight culture was used to make a master stock plate by adding 100 μL of 50% glycerol to each well and storing at −80° C. The replica culture plate was grown at 37° C. with shaking at 250 rpm for approximately 2 hrs until the OD₆₀₀ was 0.5-0.7. The wells were then infected with K07 helper phage to 5×10⁹ pfu/mL mixed and incubated at 37° C. for 30 minutes without shaking, then incubated an addition 30 minutes at 37° C. with shaking at 250 rpm. The cultures were then spun down at 2500 rpm and 4° C. for 20 minutes. The supernatants were removed from the wells and the bacterial cell pellets were re-suspended in 500 μL of 2xYT containing 50 μg/mL carbenicillin and 50 μg/mL kanamycin. An air-permeable membrane was placed on the culture block and cells were grown overnight at room temperature with shaking at 250 rpm.
On day 3, cultures were spun down and supernatants containing the phage were blocked with 3% milk/PBS for 1 hr at room temperature. An initial Phage ELISA was performed using 75-100 ng of antigen bound per well. Non-specific binding was measured using 75-100 ng of human IgG1 Fc per well. DR4/Fc antigen (R&D Systems)-coated wells and IgG Fc coated wells were prepared fresh the night before by binding the above amount of antigen diluted in 100 μL of PBS per well. Antigen plates were incubated overnight at 4° C. then for 1 hour at 37° C., washed twice with PBS/0.05% Tween 20 and twice with PBS, and then blocked with 3% milk/PBS for 1 hr at 37° C. prior to the ELISA. Blocked phage were bound to blocked antigen-bound plates for 1 hr then washed twice with 0.05% Tween 20/PBS and then twice more with PBS. A HRP-conjugated anti-M13 secondary antibody diluted in 3% milk/PBS was then applied, with binding for 1 hr and washing as described above. The ELISA signal was developed using 90 μL TMB substrate mix and then stopped with 90 μL 0.2 M sulfuric acid, then ELISA plates were read at 450 nm. […] Secondary ELISA screens were performed similarly to the protocol detailed above.

| Binder | binding result |
| --- | --- |
| B1 | binds |
| B2 | binds |
| B3 | binds |
| B4 | binds |
| B5 | binds |
| B6 | binds |
| B7 | binds |
| B8 | binds |
| B9 | binds |
| B10 | binds |
| B11 | binds |
| B12 | binds |
| B13 | binds |
| B14 | binds |
| B15 | binds |
| B16 | binds |
| B17 | binds |

| Binder | binding result |
| --- | --- |
| B18 | binds |
| B19 | binds |
| B20 | binds |
| B21 | binds |
| B22 | binds |
| B23 | binds |
| B24 | binds |
| B25 | binds |
| B26 | binds |
| B27 | binds |
| B28 | binds |
| B29 | binds |
| B30 | binds |
| B31 | binds |
| B32 | binds |
| B33 | binds |
| B34 | binds |
